For four substances, EC50 (read off the curve) results are on record in patent publication US20200308290A1.

What is called EC50 (read off the curve) is the concentration at which the effect is half-maximal. High values mean a less potent agent, low ones a more potent agent.

Experiment [1] concerns the target FcγRIIB on transfected CHO cells (UniProt P31994). Put plainly: flow cytometry on FcγRIIB-transfected CHO cells, detection with anti-human kappa antibody, GFI against nM. On the technique in general: A flow cytometer gives signals particle by particle.
Experiment [2] addresses FcγRIIIA on transfected CHO cells (UniProt P08637). Briefly: flow cytometry on FcγRIIIA-transfected CHO cells, detection with anti-human kappa antibody, GFI against nM.

Chain of FcγRIIB on transfected CHO cells (P31994 43-310 limits assumed): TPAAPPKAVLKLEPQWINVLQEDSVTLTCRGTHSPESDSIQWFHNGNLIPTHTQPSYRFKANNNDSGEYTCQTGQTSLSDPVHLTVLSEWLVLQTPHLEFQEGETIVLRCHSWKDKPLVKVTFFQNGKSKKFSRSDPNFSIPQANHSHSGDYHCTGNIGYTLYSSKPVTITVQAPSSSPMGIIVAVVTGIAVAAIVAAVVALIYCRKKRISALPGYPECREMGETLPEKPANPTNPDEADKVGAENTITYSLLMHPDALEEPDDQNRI
Chain of FcγRIIIA on transfected CHO cells (P08637 17-254 limits assumed): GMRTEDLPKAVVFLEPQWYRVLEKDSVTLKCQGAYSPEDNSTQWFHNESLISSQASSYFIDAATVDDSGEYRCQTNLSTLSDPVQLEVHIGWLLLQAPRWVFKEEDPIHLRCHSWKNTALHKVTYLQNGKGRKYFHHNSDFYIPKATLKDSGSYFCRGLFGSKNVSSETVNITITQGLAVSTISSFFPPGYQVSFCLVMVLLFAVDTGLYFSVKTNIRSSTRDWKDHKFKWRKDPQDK

Take S267E (antibody): the EC50 (read off the curve) in experiment [1] was 0.7 nM; in experiment [2], 1 nM.
Regarding L328F (antibody), the EC50 (read off the curve) in experiment [1] is 2 nM.
On the same count and under the same terms, in the case of SELF (antibody) it was 0.3 nM.
Turning to N297A (antibody), the EC50 (read off the curve) in experiment [2] was determined as 4 nM.
